# Patent US20120135064A1, “CONJUGATED NANODELIVERY VEHICLES” (Northeastern University, priority 2009, published 2012)
# Assays:
# [1] = test system: Capan-1, HPAF-II, PANC-1, MS1-VEGF and HMEC-1 cells; test: Bevacizumab cell toxicity assay (SRB); assay type: cell-based; settings: 24 h exposure; media containing or free of VEGF
# Method: Cells were seeded at 1×10^4 cells/well in 1 ml volumes in a 48-well plate. The cells were incubated for 24 h in a 37° C. cell culture incubator set at CO2 5%. […] After 24 h of incubation the SRB assay was performed (as described in, e.g., Dandamudi et al., Biochim. Biophys. Acta 1768:427-438 (2007); Skehan et al., J. Natl. Cancer Inst. 82:1107-1112 (1990); and Kalra et al., Pharm. Res. 23:2809-2817 (2006)). Briefly, the plates were washed twice with 1 ml/well of 1×PBS. Then, […] trichloracetic acid 50% solution (TCA; […]) was added to each well and the plates were stored at 4° C. for 1 h. The plates were thoroughly washed with distilled H2O five times and then 200 μl of SRB 0.4% was added to each well The plates were stored at room temperature for 30 min and then washed 4-6 times thoroughly with acetic acid 1% to remove excess SRB and air dried. 1 ml of […] was added to each well to solubilize the SRB and fluorescence intensity was measured at excitation wavelength of 540/20 and emission wavelength of 590/20 nm using FLX 800 Fluorescence Microplate Reader (Biotech instruments Inc., Winooski, Vt.). All groups were compared with untreated cells for statistical analysis.
# HPAF-II pancreatic tumor = test: In vivo therapeutic study, subcutaneous HPAF-II pancreatic tumor model, tumor volume; set-up: species or system nude mice; settings: HPAF-II tumors; injections days 1, 4, 7, 10
# Method: Tumors were grown by subcutaneously injecting 2×10^6 HPAF-II cells in 0.1 ml of cell culture media. Daily tumor volume measurements were taken using an electronic digital caliper (Control Company, Friendswood, Tex.). The equation a^2×b×0.52 was used to calculate the tumor volume, where ‘a’ and ‘b’ corresponded to the longer and shorter diameters, respectively. […] Animals received injections of the various formulations when the tumors reached a size of about 150 mm^3; the untreated control group received no injections. […] Day 1 injection was 18 μg of 2-methoxyestradiol for both PCL formulations. Day 4, 7, and 10 injections corresponded to 24 μg of 2-methoxyestradiol for both formulations. […] The end of the study was three days after the fourth injection, at which point the mice were anesthetized with ketamine/xylazine.
substance,measurement,setting,value
"bevacizumab: anti-VEGF antibody bevacizumab (Avastin, Roche)",nontoxic concentration (maximum amount of antibody without altering the growth potential of the cells),[1],500 ng/mL
same,earliest day at which tumor response / significant benefit was seen,HPAF-II pancreatic tumor,3 days
